From patent publication US12162934B2, “Gremlin-1 antagonist for the prevention and treatment of cancer” (UCB BIOPHARMA SRL, priority 2018, dated 2024)

Columns and labels:
Apc^Min mice = experiment: Apc^Min mouse polyposis model (survival); assay type: in vivo; conditions: for median survival: vehicle 192 days
[1] = test system: Foxl1, Wnt5A and Wnt2B expression; experiment: In situ hybridisation of Foxl1 and Wnt ligands in Vil1-Grem1 villus stroma; assay type: in vivo, mouse
Procedure: To investigate the source of Wnt ligand expression in the villus ectopic crypts in antibody treated and untreated Vil1-Grem1 mice (n=4) we used Foxl1 in situ hybridization (ISH) to identify sub-epithelial telocyte cells as described by Shoshkes-Carmel et al. (2018). Foxl1 expression levels were quantified using the HALO image analysis software.
Paraffin blocks were sectioned (thickness=[…]) using DEPC (Sigma) treated H2O and sections were baked for 2 hours at 60° C. Tissue was deparaffinised and treated with RNAscope Hydrogen Peroxide (ACD 322335) for 10 min at room temperature (RT). Antigen retrieval was performed for 15 minutes using RNAscope 1× Target Retrieval Reagents (1:10 ACD 322000) at 100° C. Samples were treated with RNAscope Protease Plus (ACD 322331) for 30 minutes at 40° C. using an HybEZ Hybridization System (ACD). Probes were incubated for 2 h at 40° C. Probes used were as follows: LGR4 (ACD 318321), LGR5 (ACD 312171), FZD5 (ACD 404911), FZD7 (ACD 534101), WNT2B (ACD 405031), WNT5A (ACD 316791), WNT5A-C3 (ACD, 316791-C3) and FOXL1 (ACD 407401). Slides were counter-stained using Haematoxylin […] or DAPI (Fluorescent).
Slides were scanned at 20× magnification using an Aperio CS2 Digital Pathology Scanner (Leica Biosystems). […] Foxl1 expression levels were quantified using the HALO image analysis platform (PerkinElmer) and expressed as % of DAB staining per area. […]

[2] = target: T1, BMP4/7-Gremlin-1 complexes (Homo sapiens, UniProt O60565); experiment: SMAD phosphorylation assay: displacement of BMP4/7 from Gremlin 1-BMP complexes; assay type: cell-based; conditions: BMP4/7 50 ng/ml
T1 sequence (O60565 25-184): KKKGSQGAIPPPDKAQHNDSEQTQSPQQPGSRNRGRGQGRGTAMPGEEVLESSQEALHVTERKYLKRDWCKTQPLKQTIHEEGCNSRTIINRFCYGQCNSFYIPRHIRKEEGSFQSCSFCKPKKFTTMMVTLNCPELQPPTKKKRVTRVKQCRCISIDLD
Procedure: Experiments were again performed using lung fibroblasts from idiopathic pulmonary fibrosis patients. rhBMP-2 or rhBMP 4/7 were preincubated with rhGremlin-1 for 1 hour at room temperature. The BMP-2- or BMP4/7-Gremlin-1 complexes were incubated with different concentrations of the anti-Gremlin-1 antibodies overnight at 4° C. Antibody concentrations represent the final concentration on the plate.

rhGrem1 = target: T2, rhGrem1 (Homo sapiens, UniProt O60565); experiment: Western blot of Smad1/5/9 phosphorylation in murine 4T1 breast cancer cells; assay type: cell-based, mouse; conditions: 10 ng/ml BMP2, 100 ng/ml rhGrem1 pre-incubated with antibody; vs isotype control
T2 sequence (O60565 25-184): T1 sequence (O60565 25-184)
Procedure: Murine 4T1 BrCa cells were seeded into 6-well plates and cultured until 80% confluent. Cells were starved in serum-free medium overnight, and then stimulated with indicated treatments for 2 hrs. Cell lysates were prepared and equivalent amounts of protein (50 μg) were separated on 10% sodium dodecyl sulphate-polyacrylamide gel electrophoresis (SDS-PAGE) gels and transferred to nitrocellulose membranes. Immunoblotting was performed with phospho-Smad1/5/9 antibodies (cell signalling technologies, 1:1000 dilution). Equal loading of protein samples was confirmed by blotting membranes with antibodies against β-actin (Sigma Aldrich, 1:2500 dilution). Proteins were visualised using the Odyssey Infrared Imaging System (LI-COR Bioscience, Lincoln, NE, USA).
As Grem1 is a known BMP-2/4/7 antagonist, we assessed the ability of UCB antibody Ab7326 to inhibit Grem1-induced inhibition of Smad1/5/9 phosphorylation via western blot analysis. Murine 4T1 breast cancer cells exposed to 10 ng/ml BMP2 which led to Smad1/5/9 phosphorylation. Co-incubation with 100 ng/ml rhGrem1 inhibited this BMP2-mediated Smad1/5/9 phosphorylation.

mouse intestinal crypts = experiment: Mouse intestinal organoid culture; assay type: cell-based; conditions: 1 mg/ml antibody added to fully supplemented EGR media
From the text: Culture of mouse intestinal crypts. Mouse intestinal crypts were isolated and cultured as described by Sato et al (6). In brief, crypts were isolated, resuspended in Matrigel (BD Biosciences) and plated out in 24-well plates. The basal culture medium (advanced Dulbecco's modified Eagle medium/F12 supplemented with penicillin/streptomycin, 10 mmol/L HEPES, Glutamax, 1×N2, 1×B27 (all from Invitrogen), and 1 mmol/L N-acetylcysteine (Sigma)) was overlaid containing the following growth factors; Epidermal Growth Factor at 50 ng/ml (Life Technologies), Gremlin1 at 100 ng/ml (R and D), R-spondin1 at 500 ng/ml (R and D) [EGR media]. Anti-Grem1 antibody (UCB) was used at a concentration of 1 mg/ml. The media was changed every two days.
A mouse organoid culture was used to assess effects of an anti-GREM1 antibody. Successful intestinal epithelial organoid culture is dependent on media supplementation of exogenous BMP antagonist.
Approximately 60% of crypts formed organoids in media fully supplemented with recombinant epidermal growth factor (E), Grem1 (G) and R-Spondin1, (R) (EGR media). Culture success rate dropped to less than 2% at 7 days in media lacking recombinant Grem1 (ER media).

Ab7326: allosteric inhibitory anti-Gremlin-1 antibody from a naïve human library; CDRs SEQ ID NOS 4 to 9; mouse IgG1 in mouse experiments
median survival (Apc^Min mice; early stage treatment (42 days), 30 mg/kg weekly): 424.5 days | median survival (Apc^Min mice; established polyposis, 30 mg/kg weekly from 4 months): 264.5 days | median survival (Apc^Min mice; late-stage treatment (120 days), 30 mg/kg weekly): 261 days | Survival / polyp development (Apc^Min mice; long term treatment initiated at 6 weeks of age): prolonged survival | Stromal Wnt ligand (5A and 2B) expression (ISH) ([1]; antibody-treated Vil1-Grem1 mice): abrogated Wnt ligand expression | Villus stromal Foxl1 expression (ISH) ([1]; antibody-treated Vil1-Grem1 vs WT p=0.4864): restored Foxl1 expression levels | Displacement of BMP4/7 from Gremlin 1-BMP complexes (SMAD phosphorylation) ([2]; antibody 0.63 μg/ml): 102.0% | Displacement of BMP4/7 from Gremlin 1-BMP complexes (SMAD phosphorylation) ([2]; antibody 1.27 μg/ml): 111.1% | Displacement of BMP4/7 from Gremlin 1-BMP complexes (SMAD phosphorylation) ([2]; antibody 2.55 μg/ml): 120.9% | Displacement of BMP4/7 from Gremlin 1-BMP complexes (SMAD phosphorylation) ([2]; antibody 5.1 μg/ml): 121.4% | Displacement of BMP4/7 from Gremlin 1-BMP complexes (SMAD phosphorylation) ([2]; antibody 10.2 μg/ml): 125.6% | Displacement of BMP4/7 from Gremlin 1-BMP complexes (SMAD phosphorylation) ([2]; antibody 20.3 μg/ml): 130.3% | Displacement of BMP4/7 from Gremlin 1-BMP complexes (SMAD phosphorylation) ([2]; antibody 40.6 μg/ml): 132.3% | Displacement of BMP4/7 from Gremlin 1-BMP complexes (SMAD phosphorylation) ([2]; antibody 81.3 μg/ml): 133.7% | Smad1/5/9 phosphorylation in 4T1 cells (rhGrem1): partially restored | Intestinal organoid culture success (mouse intestinal crypts): prevented successful intestinal organoid culture
